# From the RNAGym collection of RNA variant scans (doi:10.1073/pnas.2313332121)
# B1: TPR t1 (parent)
# chain: GACCAAUCUGCCCUCAGAGCUCGAGAACAUCUUCGGAUGCAGAGGAGGCAGGCUUCGGUGGCGCGAUAGCGCCAACGUCCUCAACCUCCAAUGCAUCCCACCACAUGAUGAUGCCUGAAGAGCCUUGGUUUUUUG
# Variants of: B1
# Assay: polymerase ribozyme fitness, log enrichment relative to wild type (log ratio); higher = more active; in vitro selection for triplet polymerase activity
# How it was run: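 A heterodimeric triplet polymerase ribozyme had each of its subunits mutagenized by PCR into a library, which was transcribed. One round of in vitro selection, done in triplicate, annealed each library with a biotinylated primer, its partner subunit and triplets, then incubated it frozen at −7 °C before gel excision of extended constructs, streptavidin-bead capture and RT-PCR. Fitness is the logarithm of genotype enrichment relative to wild-type enrichment, based on Illumina sequencing of inputs and outputs and inverse-variance-weighted replicate averages. A base-2 logarithm is used, and genotypes were kept only with ≥10 input reads and ≥1 read per output.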
row,Variant,polymerase ribozyme fitness (log ratio)
1,A27G G39U C73U G110C,-3.91
2,A29U G117C,-3.48
3,A27U G44A U129A,-6.51
4,A29G G61U C85A C102U,-5.28
5,A27U A68U A90C G93A C101G G110U,-7.92
6,A29G G51U U55A G57U,-3.55
7,A29C A90G G113U C114U,-3.29
8,A29U C72U C102U,-5.4
9,A29G G48U G57C C73U,-1.71
10,A29U C53U C72G A83U U96A,-4.12
11,A29G A105C,-7.42
12,A29G C97A,-5.53
13,A27U C53U G77A,-3.79
14,A27U A119C G120A,-2.76
15,C28U C40G G48U C85A,-3.6
16,C28A A46U U54G C73U C82G A90G C123U,-4.12
17,C28U G71U C82A,-3.3
18,C28G U54G C97U U130A U131C,-3.57
19,C31G C72A,-6.86
20,C28A C72U C123U,-3.7
21,C28U G39C C56G C104U,-5.32

row,Variant,polymerase ribozyme fitness (log ratio)
1,A27G U38C C40G C49G G63U A95G U132A,-3.68
2,A29G C49G G57C A121C,-0.725
3,C28A G71C,-5.69
4,A29G C40U,-2.17
5,C28G C73U C97U,-3.34
6,A29C C62G,-4.52
7,C28U G39U A111C,-6.59
8,C28G C34G G42U A46G C56A C104A A111G U131G,-5.4
9,U30G A43C C101A U106C C115U U132A,-7.22
10,C31U C70A G113A C123G C124A,-7.42
11,U30C G45U,-4.52
12,A29G G58C,-1.5
13,C31G G69U A111C U112A G117A,-6.69
14,A27U A29G A83C,-2.59
15,C28A G39U A83C C123U U133A,-4
16,A27U C79G G127U,-4.93
17,A27U A29G G63C G127C,-6.04
18,A29U C62G U81C A100U C124A,-3.66
19,C31G G36U G44A A74U A108U U112G,-7.74
20,C28U C64U G93U,-3.83
21,C28U G52C C56G G120A,-2.52

row,Variant,polymerase ribozyme fitness (log ratio)
1,C31A G44U G69A A100C U109G G135U,-6.04
2,A29C G39A A50U G52A U112C,-5.09
3,A29C A37G,-2.11
4,C28U C49G A91U U106A,-5.37
5,A27U C56G A91G U131A U133G,-5.19
6,A29G C49U A119U G120A C123A,-2.51
7,C28U G61A,-1.12
8,C28U G61C,-4.7
9,A29G U87A C104G A111U,-4.03
10,A29C C49U C72U,-4.03
11,A29G C56G A91C U112A A121G G122C,-2.1
12,C31G C34U G69U U78C C86U C101A G113U,-7.18
13,C31G C53A G71U G107C,-1.67
14,C28A G93C G110A,-0.645
15,U30A G110U,-4.94
16,A29U C56U A74U A100C,-3.55
17,C28U G42C,-3.36
18,C28A U78C A91U U106A G110U,0.263
19,C28U C101G,-5.15
20,A29G C49A,-1.64
21,A29U G61C,-2.79

row,Variant,polymerase ribozyme fitness (log ratio)
1,A29U G63A,-2.41
2,A29C G61A A75U,-1.75
3,A29G A37G A84G G110U A121G,-3.06
4,A27U G60C C82G G120C G128U,-4.87
5,A29C G44C U92C,-5.1
6,A29U A46C,-3.27
7,C28A G61A,-4.06
8,A27G G42A C73G,-5.22
9,C28U G52U G120C,-2.81
10,A29U G93A,-2.13
11,A27U G51A A74C A83C,-7.03
12,C28A U54A G61U G110U,2.18
13,A29U C79A,-3.06
14,C31A C72U C123A U125G U129A U133G,-6.38
15,U30C G61A C79G,-4.69
16,A29U C53A U129G,-2.03
17,A29G C31G G63A A100U A121C,-7.06
18,A29G G71A,-1.75
19,A29G U32C A50U C73U,-2.14
20,U30C A50C,-2.91
